Data set [1] deals with rKgp: mature recombinant Kgp catalytic domain with the ABM1 motif (Gly681-Ala710) deleted (Porphyromonas gingivalis W50). The data set can be described thus: enzyme inhibition kinetics.
For data set [2] the target is unchanged.
Data set [3] concerns the molecule itself. Put plainly: SEC.

Where “and” joins values, the source holds several entries; their conditions need not be identical. Equal entries are not always repeated.

In general, Ki refers to the dissociation constant of the complex between target and ligand, obtained from inhibition or displacement. As a reminder, the stoichiometry N is a count of units in the complex or per binding partner.

Take “recombinant Kgp propeptide (thrombin-cleaved; used as DTT-stabilised monomer in the inhibition assays) (from UniProt Q51817 20-228) (domain or fragment)”: the Ki in data set [1] was 2010 nM and 2040 nM.

For the molecule “iodoacetylated Kgp propeptide monomer (from UniProt Q51817 20-228) (domain or fragment)”, the inhibition of rKgp by the iodoacetylated monomer (100 mg/L), substrate DQ-BSA in data set [2] was 28 % inhibition.

B1: recombinant Kgp propeptide (thrombin-cleaved; used as DTT-stabilised monomer in the inhibition assays) (domain or fragment)
chain: QSAKIKLDAPTTRTTCTNNSFKQFDASFSFNEVELTKVETKGGTFASVSIPGAFPTGEVGSPEVPAVRKLIAVPVGATPVVRVKSFTEQVYSLNQYGSEKLMPHQPSMSKSDDPEKVPFVYNAAAYARKGFVGQELTQVEMLGTMRGVRIAALTINPVQYDVVANQLKVRNNIEIEVSFQGADEVATQRLYDASFSPYFETAYKQLFNR
On to B1, for which the “stoichiometry N” value in data set [3] stood at 2.

For the origin of these results see article PMC3677877 (PLoS ONE, 2013).
